The values below come from FireProtDB (doi:10.1002/prot.340230110).

For the series the following is noted: Escherichia coli; pH 6; 25 °C; Thermal; DSC; Sodium phosphate/Sodium sulfate 10 mM/10 mM/; reversible: yes; whole UniProt chain shown.

B1: Regulatory protein rop wild type, P03051 (protein)
chain: MTKQEKTALNMARFIRSQTLTLLEKLNELDADEQADICESLHDHADELYRSCLARFGDDGENL
On to B1, for which the “heat capacity change of unfolding” value came to 2.46 kcal/mol/K and the unfolding free energy was determined as 17.1 kcal/mol.
